These results are taken from patent US20230030529A1 (NORDIC BIOSCIENCE A S, published 2023).

Ends that are not written are not given here. * marks the point of attachment. Biotin = O=C1N[C@H]2[C@H](CS[C@H]2CCCCC(=O)*)N1

The chains are these.
T1: Non-sense coating peptide LLARDFEKNY-K-biotin
T1 construct: also called non-sense biotinylated peptide
T1 peptide: LLARDFEKNYK(Biotin)

B1: Truncated peptide GNTGPTGAV (peptide)
peptide: GNTGPTGAV
B2: C4-aa^1355 monoclonal antibody (antibody, V domains shown)
VH: QVTLKESGPGILQPSQTLSLTCSFSGFSLTTYNIGVGWIRQSSGKGLEWLAHIWYNDIKYYNTALKSRLTISKDTSNNQVFLKIASVVTADTATYYCARLRPDSFDYWGQGTTLTVSS
VL: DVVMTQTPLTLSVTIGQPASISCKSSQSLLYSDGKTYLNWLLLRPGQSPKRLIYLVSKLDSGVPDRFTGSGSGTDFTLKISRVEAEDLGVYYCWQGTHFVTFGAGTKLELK
notes: It was SULFO-TAG labelled in the ECLIA; also called the monoclonal antibody
B3: Elongated peptide FMGNTGPTGAV (peptide)
peptide: FMGNTGPTGAV
B4: Selection peptide MGNTGPTGAV (peptide)
peptide: MGNTGPTGAV
notes: also called target peptide
B5: Deselection peptide 3 QGNTGPTGAV (peptide)
peptide: QGNTGPTGAV
notes: also called Deselection 3
B6: Deselection peptide 1 MGQTGPTGAV (peptide)
peptide: MGQTGPTGAV
notes: also called Deselection 1
B7: Non-sense selection peptide LLARDFEKNY (peptide)
peptide: LLARDFEKNY

Assay [1] concerns the target B2. The assay can be described thus: competitive C4-aa^1355 ECLIA (peptide in solution against the biotinylated coating peptide). Here is the method:
The target sequence was used as the selection peptide ([…] (SEQ ID No. 1)). The immunogenic peptide ([…]-GGC-KLH) was generated by covalently linking the selection peptide to Keyhole Limpet Hemocyanin (KLH) carrier protein with addition of glycine and cysteine residues in between to ensure right linking. A biotinylated peptide ([…]-K-biotin) was used as a coating peptide. The specificity of the antibody was tested by including an elongated peptide ([…] (SEQ ID No. 7)), a truncated peptide ([…] (SEQ ID No. 3)), a non-sense selection peptide ([…] (SEQ ID No. 18)) and a non-sense coating peptide ([…]-K-biotin). To test for potential cross-reactivity to other ECM proteins with similar sequences, three peptides with one amino acid mismatch at either position one ([…] (SEQ ID No. 6)), three ([…] (SEQ ID No. 4)) or four ([…] (SEQ ID No. 5)) from the N-terminal were included in the specificity test. Antibody specificity was calculated as percentage of signal inhibition of two-fold diluted peptides.
During assay development, an optimal incubation buffer, time, temperature and concentrations of antibody and coating peptide were determined and the finalized competitive C4-aa¹³⁵⁵ ECLIA protocol was as follows: A MSD GOLD 96-well streptavidin pre-coated plate (Meso Scale Discovery, cat. no. L15SA-1) was incubated with 150 μl/well blocking buffer (10 mM phosphate-buffered saline (PBS) with bovine serum albumin (BSA) (5% w/v) and bronidox (0.36% v/v), 8 g/L NaCl, pH 7.4) for 60 minutes at 20° C. with shaking (300 rpm) in darkness. The plate was coated with 25 μl/well biotinylated coating peptide dissolved in assay buffer (50 mM PBS with BSA (1% w/v), Tween-20 (0.1% w/v) and bronidox (0.36% v/v), 8 g/L NaCl, pH 7.4) to a concentration at 2 ng/ml and incubated for 60 minutes at 20° C. with shaking (750 rpm) in darkness. Next, 25 μl/well selection peptide, assay controls or pre-diluted serum/plasma sample (1:2) were added followed by immediately addition of 25 μl/well of SULFO-TAG (MSD GOLD SULFO-TAG NHS-Ester Conjugation, Meso Scale Discovery, cat. no. R31AA-1) labelled monoclonal antibody diluted in assay buffer to a final concentration at 25 ng/ml and the plate incubated 20 hours at 4° C. with shaking (300 rpm) in darkness.

Assay [2] deals with T2, Recombinant type IV collagen alpha2 chain, undigested (without protease) (UniProt P08572 184-1712).
T2 construct: Bought recombinant protein; also called non-digested type IV collagen; type IV collagen α2 chain
T2 sequence (P08572 184-1712): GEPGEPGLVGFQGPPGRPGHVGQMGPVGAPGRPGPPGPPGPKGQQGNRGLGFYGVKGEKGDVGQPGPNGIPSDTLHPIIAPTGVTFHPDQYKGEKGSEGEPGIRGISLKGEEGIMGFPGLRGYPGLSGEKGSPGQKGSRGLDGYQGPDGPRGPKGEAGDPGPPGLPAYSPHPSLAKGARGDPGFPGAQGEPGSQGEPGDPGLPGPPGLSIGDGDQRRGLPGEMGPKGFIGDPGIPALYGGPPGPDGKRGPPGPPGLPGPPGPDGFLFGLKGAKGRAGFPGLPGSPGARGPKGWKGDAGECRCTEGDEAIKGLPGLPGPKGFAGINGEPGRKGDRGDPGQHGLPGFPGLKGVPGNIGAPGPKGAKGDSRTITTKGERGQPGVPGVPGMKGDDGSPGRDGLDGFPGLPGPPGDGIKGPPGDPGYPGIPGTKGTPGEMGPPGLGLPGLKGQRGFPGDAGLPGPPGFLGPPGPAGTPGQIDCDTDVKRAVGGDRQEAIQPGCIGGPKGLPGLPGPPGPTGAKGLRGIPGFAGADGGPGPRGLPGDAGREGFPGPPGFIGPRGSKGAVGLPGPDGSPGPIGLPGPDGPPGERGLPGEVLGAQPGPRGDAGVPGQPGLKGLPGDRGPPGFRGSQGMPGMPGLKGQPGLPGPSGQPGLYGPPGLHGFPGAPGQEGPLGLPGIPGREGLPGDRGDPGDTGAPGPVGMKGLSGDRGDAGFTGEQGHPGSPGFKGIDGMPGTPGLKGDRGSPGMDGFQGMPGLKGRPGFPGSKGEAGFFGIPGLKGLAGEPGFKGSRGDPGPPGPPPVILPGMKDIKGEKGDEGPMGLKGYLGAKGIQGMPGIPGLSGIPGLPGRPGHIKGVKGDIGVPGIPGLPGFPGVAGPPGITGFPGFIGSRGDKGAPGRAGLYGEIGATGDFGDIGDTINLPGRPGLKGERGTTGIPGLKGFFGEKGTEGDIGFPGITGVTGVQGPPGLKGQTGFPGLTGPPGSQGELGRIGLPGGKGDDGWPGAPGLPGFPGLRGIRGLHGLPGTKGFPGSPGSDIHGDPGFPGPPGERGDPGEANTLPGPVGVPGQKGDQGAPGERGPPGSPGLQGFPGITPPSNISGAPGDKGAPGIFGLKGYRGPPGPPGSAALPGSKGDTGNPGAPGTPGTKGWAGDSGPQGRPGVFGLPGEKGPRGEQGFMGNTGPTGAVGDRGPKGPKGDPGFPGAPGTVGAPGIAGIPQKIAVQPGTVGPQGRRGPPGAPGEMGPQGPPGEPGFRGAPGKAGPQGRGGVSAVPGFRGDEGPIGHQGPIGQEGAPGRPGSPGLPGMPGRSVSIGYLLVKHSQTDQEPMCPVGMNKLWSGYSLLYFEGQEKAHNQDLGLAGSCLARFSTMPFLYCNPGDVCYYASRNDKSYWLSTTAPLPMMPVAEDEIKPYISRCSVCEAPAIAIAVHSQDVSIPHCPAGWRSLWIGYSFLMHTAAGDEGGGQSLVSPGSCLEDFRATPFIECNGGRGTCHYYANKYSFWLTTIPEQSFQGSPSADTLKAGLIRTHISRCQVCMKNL
The assay can be described thus: competitive C4-aa^1355 ECLIA on the collagen sample. The procedure: (§1) During assay development, an optimal incubation buffer, time, temperature and concentrations of antibody and coating peptide were determined and the finalized competitive C4-aa¹³⁵⁵ ECLIA protocol was as follows: A MSD GOLD 96-well streptavidin pre-coated plate (Meso Scale Discovery, cat. no. L15SA-1) was incubated with 150 μl/well blocking buffer (10 mM phosphate-buffered saline (PBS) with bovine serum albumin (BSA) (5% w/v) and bronidox (0.36% v/v), 8 g/L NaCl, pH 7.4) for 60 minutes at 20° C. with shaking (300 rpm) in darkness. […] Finally, 150 μl/well of MSD GOLD Read Buffer (Meso Scale Discovery, cat. no. R92TG-2) was added and the plate was read immediately within 2 minutes in a Sector Imager 6000 (Meso Scale Discovery). SULFO-TAG enabled light emission when electricity was applied, and the light emission data was analyzed using the MSD Discovery Workbench 4.0 software. The analyte concentration was calculated using a 4-parametric curve fit model.
To confirm that the C4-aa¹³⁵⁵ antibody/assay recognized a protease generated type IV collagen neo-epitope, C4-aa¹³⁵⁵ was measured in non-digested, MMP-9 digested and GzB digested type IV collagen.

Assay [3] deals with T1, Non-sense coating peptide …. Nature of the assay: ECLIA with the non-sense coating peptide on the streptavidin plate. The procedure:
The target sequence was used as the selection peptide ([…] (SEQ ID No. 1)). The immunogenic peptide ([…]-GGC-KLH) was generated by covalently linking the selection peptide to Keyhole Limpet Hemocyanin (KLH) carrier protein with addition of glycine and cysteine residues in between to ensure right linking. A biotinylated peptide ([…]-K-biotin) was used as a coating peptide. The specificity of the antibody was tested by including an elongated peptide ([…] (SEQ ID No. 7)), a truncated peptide ([…] (SEQ ID No. 3)), a non-sense selection peptide ([…] (SEQ ID No. 18)) and a non-sense coating peptide ([…]-K-biotin). […] Antibody specificity was calculated as percentage of signal inhibition of two-fold diluted peptides.
During assay development, an optimal incubation buffer, time, temperature and concentrations of antibody and coating peptide were determined and the finalized competitive C4-aa¹³⁵⁵ ECLIA protocol was as follows: A MSD GOLD 96-well streptavidin pre-coated plate (Meso Scale Discovery, cat. no. L15SA-1) was incubated with 150 μl/well blocking buffer (10 mM phosphate-buffered saline (PBS) with bovine serum albumin (BSA) (5% w/v) and bronidox (0.36% v/v), 8 g/L NaCl, pH 7.4) for 60 minutes at 20° C. with shaking (300 rpm) in darkness. […]

Assay [4] concerns the target B4. Nature of the assay: preliminary competitive ELISA, biotinylated coating peptide on streptavidin plates. Here is the method:
Female Balb/C mice of 6-7 weeks of age were immunized subcutaneously with 200 μl emulsified antigen containing 100 μg immunogenic peptide ([…]-GGC-KLH) with Stimune Immunogenic adjuvant (Thermo fisher, cat. no. 7925000) repeatedly every second week until stable titer levels were obtained. The mouse with the highest antibody titer rested for four weeks and was then boosted intraperitoneally with immunogenic peptide. After three days, splenocytes were isolated and fused with murine SP2/0 myeloma cells to produce hybridoma cells as previously described (17). The hybridoma cells were cultured in 96-well microtiter plates and limited dilution was used to secure monoclonal growth. Supernatants from the monoclonal antibody producing hybridoma cells were screened for reactivity against the selection peptide and human serum samples in a preliminary competitive ELISA using biotinylated coating peptide on streptavidin-coated microtiter plates (Roche, cat. no. 11940279). The clone with the best reactivity towards the selection peptide was purified using protein-G-columns according to the manufacturer's instructions (GE Healthcare Life Sciences, cat. no. 17-0404-01).

The target of assay [5] is B2. Nature of the assay: competitive C4-aa^1355 ECLIA, peptide in solution against the biotinylated coating peptide. The procedure: as §1, with “darkness. The plate was coated with 25 μl/well biotinylated coating peptide dissolved in assay buffer (50 mM PBS with BSA (1% w/v), Tween-20 (0.1% w/v) and bronidox (0.36% v/v), 8 g/L NaCl, pH 7.4) to a concentration at 2 ng/ml and incubated for 60 minutes at 20° C. with shaking (750 rpm) in darkness.” for “darkness.”
Target sequence in this assay (VL, as listed by the source): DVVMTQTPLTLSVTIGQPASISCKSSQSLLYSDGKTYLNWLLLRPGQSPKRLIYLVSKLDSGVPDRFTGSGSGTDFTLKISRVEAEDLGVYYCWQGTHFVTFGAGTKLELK

B1: the binding result in assay [1] is reported as “no binding”.

For B2, the binding result in assay [2] is listed as “no binding”; in assay [3], “no binding”; in assay [4] it was “binds”.

On to B3, for which the binding result in assay [1] was “no binding”.

As to B4, in assay [5], the binding result is listed as “binds”.

Take B5: the binding result in assay [1] was “no binding (tested: 0-30 ng/ml)”.

Regarding B6, the binding result in assay [1] is “no binding (tested: 0-30 ng/ml)”.

With B7, the binding result in assay [1] was “no binding”.
